One block for each substance: values may come before it.
Legend:
Experiment in all cases: SEC
[1] = molecular target: CdpB1 from Archaeoglobus fulgidus (Archaeoglobus fulgidus)
[2] = molecular target: SepF from Archaeoglobus fulgidus (Archaeoglobus fulgidus)
[3] = molecular target: CdpB2 from Archaeoglobus fulgidus (Archaeoglobus fulgidus)

stoichiometry N [1]: 2
Substance: CdpB1 from Archaeoglobus fulgidus (natural protein)

stoichiometry N [2]: 2
Substance: SepF from Archaeoglobus fulgidus (natural protein)

stoichiometry N [3]: 2
Substance: CdpB2 from Archaeoglobus fulgidus (natural protein)
